Results taken from patent publication US7737158B2, “Processes for regulating blood glucose in a mammal” (Washington University, priority 2005, dated 2010).
“Also recorded” adds a separate entry of the source.

Assays:
mouse Nampt = mouse Nampt (Mus musculus, UniProt Q99KQ4); test: Enzyme-coupled fluorometric assay of immunoprecipitated Nampt-FLAG and recombinant Nampt; format: biochemical; design: expressed in transfected cells; host or cells: mouse NIH3T3 fibroblasts and mouse HIB-1B preadipocytes (differentiated), stably transfected with pCXN2-Nampt-FLAG; cell extracts or culture supernatant, anti-FLAG immunoprecipitates; settings: for kcat: NMN synthesis, 55 min at 37° C., pH8.5, Nampt amount quantified by Western blotting
Protocol: For immunoprecipitation of intracellular Nampt, whole cell extracts were prepared with ice-cold immunoprecipitation (IP) buffer (phosphate buffer saline [pH 7.4], 0.5% NP-40, 1 mM EDTA,1 mM NaF, 10 μM Trichostatin A, 10 mM nicotinamide, 0.5 mM DTT, protease inhibitor cocktail (Roche)) and mixed with agarose beads conjugated with the mouse monoclonal M2 anti-FLAG antibody (F2426, Sigma) for 3-4 hours at 4° C. For immunoprecipitation of extracellular Nampt, HIB-1B culture supernatants were collected after incubating differentiated HIB-1B cells overnight with DMEM without fetal bovine serum but supplemented with 1 μg/ml insulin and 1 nM triodothyronine, filtered through a 0.22-μm PES membrane, concentrated with Amicon Ultra-15 columns (Millipore, MA), and mixed with anti-FLAG beads for 3-4 hours at 4° C. Immunoprecipitates were washed twice with the IP buffer and twice with PBS.
Immunoprecipitates on anti-FLAG beads were incubated in enzymatic reaction buffer (50 mM Tris-HCl (pH8.5), 100 mM NaCl, 0.25 mM Nicotinamide, 10 mM MgSO4, 1.5% Ethanol, 0.5 mM PRPP, 2.0 mM ATP) for 55 min at 37° C. After this reaction, mouse recombinant nicotinamide mononucleotide adenylyltransferase and yeast alcohol dehydrogenase (Sigma) were added at 10 μg/ml as the final concentration for each, and the mixture was incubated for 5 min at 37° C. Supernatants were then collected by spinning down anti-FLAG beads, and autofluorescence of NADH was measured in a Perkin Elmer LS 50B fluorometer (excitation: 340 nm; emission: 460 nm). Immunoprecipitates bound on anti-FLAG beads were extracted with Laemmli's sample buffer, boiled for 5 minutes, and analyzed by Western blotting with anti-Nampt antibodies. The amounts of Nampt used for enzymatic reactions were quantitated compared to the standards of mouse recombinant Nampt.
The immunoprecipitates from the HIB-1B culture supernatants were subjected to enzyme-coupled fluorometric assays (see Revollo et al., J. Biol. Chem., (2004)279, 50754-50763) to compare enzymatic activity of the intracellular and extracellular forms of Nampt. […] The Nampt enzymatic activity of the bacterially produced recombinant Nampt and the intracellular Nampt-FLAG® immunoprecipitated from HIB-1B and NIH3T3 cellular extracts were also measured and their kcat values calculated (see FIG. 16E). […] It is believed that a post-translational modification may be responsible for the altered enzymatic activity of extracellular Nampt produced by brown adipocytes. […] Despite the extensive mass spectrometric analysis of extracellular Nampt, the precise nature of the modification is currently unknown. Taken together, these findings provide strong evidence that Nampt functions as an NAD biosynthetic enzyme both intra- and extracellularly.

mouse Nmnat = target: T1, mouse Nmnat (Mus musculus, UniProt Q9EPA7); test: Enzyme-coupled fluorometric assay, kinetic characterization of recombinant Nmnat; format: biochemical
T1 construct: Polyclonal rabbit antisera were produced against the purified full-length His-tagged Nampt and Nmnat recombinant proteins; made in house; host or cells: E. coli BL21(DE3)pLysS
Protocol: Enzymatic activities of recombinant Nampt and Nmnat proteins were measured by an enzyme-coupled fluorometric assay (see, e.g., FIG. 4B). In this enzyme-coupled reaction, NAD is converted to NADH by alcohol dehydrogenase, and the fluorescence of NADH is detected in a fluorometer. To establish this assay system, optimal reaction conditions for Nmnat were initially examined by varying ATP and Mg^2+ concentrations and pH of the reaction buffer. The resultant reaction buffer for Nmnat contained 50 mM HEPES [pH 7.4], 0.02% BSA, 12 mM MgCl2, 2 mM ATP, 1.5% ethanol, and 30 μg/ml alcohol dehydrogenase to convert NAD to NADH. To determine the kinetic parameters for Nmnat, 30 ng of purified His-tagged Nmnat and varying concentrations of NMN were added to 1 ml of the reaction buffer. The reactions were run at 37° C. and quenched at six time points by the addition of 250 μl of 0.5 M EDTA. The production of NADH was measured by excitation at 340 nm and emission at 460 nm in a fluorometer. For kinetic characterization of Nampt, 500 ng of His-tagged Nampt and varying concentrations of nicotinamide were reacted at 37° C. in 100 μl of a buffer containing 50 mM Tris-HCl [pH 7.5], 0.02% BSA, 12 mM MgCl2, 2.5 mM ATP, 10 μg/ml His-tagged Nmnat, 0.4 mM phosphoribosyl pyrophosphate (PRPP), 1.5% ethanol, and 30 μg/ml alcohol dehydrogenase. NADH production was measured continuously in a fluorometer.
By using this enzyme-coupled fluorometric assay, kinetic parameters of purified recombinant mouse Nampt and Nmnat for nicotinamide and NMN, respectively, were determined (see, e.g., Table 1). The Lineweaver-Burk plots for these two enzymes are shown, for example, in FIGS. 11A and 11B. […] The Km and Vmax of mouse Nmnat are consistent with previously reported values for human NMNAT-1 (Emanuelli et al., J. Biol. Chem. (2001) 276, 406-412).

[1] = purified His-tagged recombinant mouse Nmnat, substrate NMN

B1: intracellular Nampt-FLAG® from NIH3T3 cells: FLAG-tagged mouse Nampt immunoprecipitated from NIH3T3 cellular extracts (protein, UniProt Q99KQ4 1-491, looked up)
Nicotinamide …: MNAAAEAEFNILLATDSYKVTHYKQYPPNTSKVYSYFECREKKTENSKVRKVKYEETVFYGLQYILNKYLKGKVVTKEKIQEAKEVYREHFQDDVFNERGWNYILEKYDGHLPIEVKAVPEGSVIPRGNVLFTVENTDPECYWLTNWIETILVQSWYPITVATNSREQKKILAKYLLETSGNLDGLEYKLHDFGYRGVSSQETAGIGASAHLVNFKGTDTVAGIALIKKYYGTKDPVPGYSVPAAEHSTITAWGKDHEKDAFEHIVTQFSSVPVSVVSDSYDIYNACEKIWGEDLRHLIVSRSTEAPLIIRPDSGNPLDTVLKVLDILGKKFPVTENSKGYKLLPPYLRVIQGDGVDINTLQEIVEGMKQKKWSIENVSFGSGGALLQKLTRDLLNCSFKCSYVVTNGLGVNVFKDPVADPNKRSKKGRLSLHRTPAGNFVTLEEGKGDLEEYGHDLLHTVFKNGKVTKSYSFDEVRKNAQLNIEQDVAPH
modifications: FLAG tag
notes: FLAG-tagged mouse Nampt immunoprecipitated from NIH3T3 cellular extracts
Q: B1 was tested. Which kcat (mouse Nampt) did it give?
A: 0.082 s⁻¹

B2: extracellular Nampt: Extracellular Nampt from HIB-1B culture supernatants (protein)
chain: B1 Nicotinamide …
Q: B2 was tested. Which “enzymatic activity after treatment with calf intestinal phosphatase (CIP)” value (mouse Nampt; extracellular Nampt from HIB-1B culture supernatants) did it give?
A: did not change

B3: intracellular Nampt-FLAG® from differentiated HIB-1B cells: FLAG-tagged mouse Nampt immunoprecipitated from differentiated HIB-1B cellular extracts (protein, UniProt Q99KQ4 1-491, looked up)
Nicotinamide …: B1 Nicotinamide …
modifications: FLAG tag
notes: FLAG-tagged mouse Nampt immunoprecipitated from differentiated HIB-1B cellular extracts
Q: With B3 as the molecule, how does the kcat (mouse Nampt) read?
A: 0.182 s⁻¹

B4: Nmnat: Bacterially produced, His-tagged recombinant mouse nicotinamide/nicotinic acid mononucleotide adenylyltransferase (protein, UniProt Q9EPA7 1-285, looked up)
Nicotinamide/nicotinic acid …: MDSSKKTEVVLLACGSFNPITNMHLRLFELAKDYMHATGKYSVIKGIISPVGDAYKKKGLIPAHHRIIMAELATKNSHWVEVDTWESLQKEWVETVKVLRYHQEKLATGSCSYPQSSPALEKPGRKRKWADQKQDSSPQKPQEPKPTGVPKVKLLCGADLLESFSVPNLWKMEDITQIVANFGLICITRAGSDAQKFIYESDVLWRHQSNIHLVNEWITNDISSTKIRRALRRGQSIRYLVPDLVQEYIEKHELYNTESEGRNAGVTLAPLQRNAAEAKHNHSTL
modifications: His tag
notes: Bacterially produced, His-tagged recombinant mouse nicotinamide/nicotinic acid mononucleotide adenylyltransferase
Q: For B4, which “synthesis of NAD from NMN and ATP” value (mouse Nmnat; isolated reactions) is on record?
A: catalyzed the synthesis of NAD

Q: What about the Vmax (mouse Nmnat; [1]) of the same molecule?
A: 31.4 µmol/min/mg

Q: And the kcat (mouse Nmnat; [1])?
A: 20.0 s⁻¹

Q: And the Km (mouse Nmnat; purified His-tagged recombinant mouse Nmnat, substrate NMN, 37° C.)?
A: 20.1 µM

B5: extracellular Nampt-FLAG®: C-terminally FLAG-tagged mouse Nampt (SEQ ID NO:7) secreted from differentiated HIB-1B cells, immunoprecipitated from culture supernatants (protein)
chain: MNAAAEAEFNILLATDSYKVTHYKQYPPNTSKVYSYFECREKKTENSKVRKVKYEETVFYGLQYILNKYLKGKVVTKEKIQEAKEVYREHFQDDVFNERGWNYILEKYDGHLPIEVKAVPEGSVIPRGNVLFTVENTDPECYWLTNWIETILVQSWYPITVATNSREQKKILAKYLLETSGNLDGLEYKLHDFGYRGVSSQETAGIGASAHLVNFKGTDTVAGIALIKKYYGTKDPVPGYSVPAAEHSTITAWGKDHEKDAFEHIVTQFSSVPVSVVSDSYDIYNACEKIWGEDLRHLIVSRSTEAPLIIRPDSGNPLDTVLKVLDILGKKFPVTENSKGYKLLPPYLRVIQGDGVDINTLQEIVEGMKQKKWSIENVSFGSGGALLQKLTRDLLNCSFKCSYVVTNGLGVNVFKDPVADPNKRSKKGRLSLHRTPAGNFVTLEEGKGDLEEYGHDLLHTVFKNGKVTKSYSFDEVRKNAQLNIEQDVAPHGGDYKDDDDK
modifications: C-terminal FLAG tag; Nampt-FLAG (tm) protein
Q: B5 was tested. Which kcat (mouse Nampt) did it give?
A: 0.380 s⁻¹

Q: What about the Nampt enzymatic activity (mouse Nampt; immunoprecipitated from culture supernatants of differentiated HIB-1B cells) of the same molecule?
A: Robust activity; also recorded: has Nampt enzymatic activity

Q: What about the “kcat of extracellular Nampt-FLAG, fold higher than recombinant Nampt” value (mouse Nampt; versus bacterially produced recombinant Nampt) of the same molecule?
A: ~11 fold

Q: And the “kcat of extracellular Nampt-FLAG, fold higher than intracellular Nampt-FLAG from NIH3T3 cells” value (mouse Nampt; versus intracellular Nampt-FLAG from NIH3T3 cells)?
A: ~5 fold

Q: And the “kcat of extracellular Nampt-FLAG, fold higher than intracellular Nampt-FLAG from differentiated HIB-1B cells” value (mouse Nampt; versus intracellular Nampt-FLAG from differentiated HIB-1B cells)?
A: ~2 fold
